Reference: patent US12496346B2, “Phospholipid-flavagline conjugates and methods of using the same for targeted cancer therapy” (Cellectar Biosciences, Inc., priority 2019, dated 2025)
Read-outs that look alike come from different tables or passages of the source.

Key:
[1] = test system: A549 (human lung adenocarcinoma); assay: cells; assay type: cell-based; settings: for Therapeutic Index (TI), second value in parentheses: from the NHDF value in parentheses
in vivo = assay type: in vivo, mice
Protocol: Listed in Table 5 are the doses administered to the mice, and how many mice were alive after treatment (“3/3” indicates 3 out of 3 mice were alive). […] MTD for CLR 1865 was between 5 and 10 mg/kg.

[2] = test system: NHDF (normal human dermal fibroblasts); assay: IC50 of PLE-flavagline conjugates in cell lines; assay type: cell-based; settings: read-out: IC50 NHDF
[3] = test system: HCT 116 (human colon cancer); assay: IC50 of PLE-flavagline conjugates in cell lines; assay type: cell-based; settings: HCT-116, read-out: IC50 HCT 116
[4] = test system: A375 (human malignant melanoma); assay: IC50 of PLE-flavagline conjugates in cell lines; assay type: cell-based; settings: A-375, read-out: IC50 A375
A375 and A549 cells = assay: FLV3 levels in cell lysate and growth media by LC/MS; assay type: cell-based, human; settings: after 24 hours, CLR 1852 and FLV3 alone administered
Protocol: The levels of FLV3 in cell lysate and growth media were measured using LC/MS. […] Levels of intracellular FLV3 appeared to plateau at 24 hours, while extracellular levels of FLV3 continued to increase.

in vitro [5] = settings: mouse, plasma
Protocol: (§1) A small amount of molecule was exposed to plasma, and the plasma was then analyzed via HPLC or MS to determine if the molecule was degraded.

Plasma stability [6] = assay: Plasma stability
Protocol: as §1

Plasma stability [7] = assay: Plasma stability; remark: listed apart in the source
Protocol: as §1

in vitro [8] = settings: human, plasma
Protocol: as §1

[9] = test system: HCT 116 cells (human colon cancer); assay type: in vivo; settings: three doses of 1 mg/mg each, FIG. 9
[10] = in vitro, NHDF IC50 relative to cancer cell IC50

SMILES | Therapeutic Index (TI) [1, 10] | mice alive after treatment (in vivo; Dose 0.1 mg/kg) | mice alive after treatment (in vivo; Dose 0.25 mg/kg) | Therapeutic Index (TI), second value in parentheses ([1]; in vitro) | mice alive after treatment (in vivo; Dose 0.5 mg/kg) | mice alive after treatment (in vivo; Dose 1.0 mg/kg) | mice alive after treatment (in vivo; Dose 5.0 mg/kg) | mice alive after treatment (in vivo; Dose 10.0 mg/kg) | tolerability compared to FLV3 alone (in vivo; mice) | half-life (in vitro [5]) [h] | human plasma stability (Plasma stability [6]) | half-life (in vitro [8]) [h] | other results
COC(=O)[C@@H]1[C@H](O)[C@]2(O)c3c(OC)cc(OCCCCN)cc3O[C@]2(c2ccc(OC)cc2)[C@H]1c1ccccc1 [FLV3] | 0.89 | 3/3 | 3/3 |  |  |  |  |  |  |  |  |  | IC50 ([1]; Homo sapiens, A549, read-out: IC50 A549): 90 nM; IC50 [2]: 8 nM; IC50 [3]: 9 nM; IC50 [4]: 15 nM; levels of FLV3 in the cell lysate (A375 and A549 cells): high levels; levels of FLV3 in the growth media (A375 and A549 cells): Moderate levels
COC(=O)[C@H]1[C@@H](O)[C@@]2(O)c3c(OC)cc(OCCCCNC(=O)OCC(C)(C)SSCCCCCCCCCCCCCCCCCCOP(=O)([O-])OCC[N+](C)(C)C)cc3O[C@@]2(c2ccc(OC)cc2)[C@@H]1c1ccccc1 [CLR 1852] |  | 3/3 | 3/3 | (915) | 3/3 | 3/3 | 3/3 | 3/3 | excellent improvement in tolerability | > 6.67 | excellent human plasma stability | > 6.67 | Therapeutic Index (TI) [1]: 360; cytotoxic potency compared to FLV3 alone ([1]; various concentrations, FIG. 8 (A549 and NHDF)): modest loss in potency; maximum tolerated dose (MTD) (in vivo; mice): did not achieve a maximum tolerated dose; in vivo therapeutic index (in vivo; mouse, in vivo): at least 25; time stable in plasma (Plasma stability [7]; species not given): at least 7 hours; tumor volume compared to vehicle [9]: reduced the tumor volume beginning at around 27 days
COc1ccc([C@@]23Oc4cc(OCCCCNC(=O)OCC(C)(C)SSCCCCCCCCCCCCCCCCCCOP(=O)([O-])OCC[N+](C)(C)C)cc(OC)c4[C@]2(O)[C@H](O)[C@H](C(=O)O)[C@H]3c2ccccc2)cc1 [CLR 1865] | 11.64 | 3/3 | 3/3 | (37.3) | 3/3 | 3/3 | 3/3 | 2/3 | excellent improvement in tolerability | 3.32 | excellent human plasma stability | > 6.67 | in vivo therapeutic index (in vivo; mice): ≥ 12.5; MTD (in vivo; mouse, in vivo, mice, read-out: maximum tolerated dose (MTD)): 5 to 10 mg/kg; time stable in mouse plasma (Plasma stability [7]; mouse): 3.3 h
